The source of these data is patent US20180280528A1, “ANTIFOLATE CONJUGATES FOR TREATING INFLAMMATION” (ENDOCYTE, INC., priority 2015, published 2018).

Series [1] can be described thus: Plasma protein binding by ultrafiltration, human plasma. The settings on record: 500 nM. The format is in vitro ADME. The method, then: (§1) EC2319 and EC1669 plasma protein binding was evaluated by ultra filtration using VWR 30K MWCO modified PES filters. 250 μL of 500 nM EC2319 or EC1669 in K3EDTA plasma incubated at 37° C. was added to the upper filter vessel. 50 μL was immediately removed as the donor plasma sample and aliquoted into a clean 1.2 mL plate. […] An aliquot of […] plasma ultrafiltrate was then added to the 1.2 mL plate as the receiver sample. To each plasma sample, 50 μL of plasma ultrafiltrate was added, and each ultrafiltrate sample received 50 μL of plasma to mitigate matrix effects. N-Maleoyl-β-alanine, mannitol, and acetic acid were added at the end of each experiment to stabilize the samples prior to LC-MS/MS analysis.

A short description of series [2]: Release of aminopterin in dog hepatic cytosol. Type of series: in vitro ADME. The settings on record: 5% dog liver cytosol, 1 hour; for pH dependence of aminopterin release from the conjugate: pH 4.5, 6.0, 7.4, 37° C. The method, then: EC2319 and EC1669 were incubated in 5% rat, dog, and human hepatic cytosol at different pH's to look at release of aminopterin from these conjugates. Liver cytosols from male Sprague-Dawley rats (Lot No. 1110428), male beagle dogs (Lot no. 1310024), and male humans (Lot No. 0710493), all containing 10 mg/mL protein, were obtained from Xenotech LLC (Lenexa, Kans.). These were diluted 20× in either 0.5 M sodium acetate buffer, pH 4.5, 0.5 M sodium acetate buffer, 6.0, or 0.5 M potassium phosphate buffer, pH 7.4 in a final volume of 500 μL. Reactions were initiated by the addition of 1 μL of either EC2319 or EC1669 and the reaction mixtures incubated at 37° C. for 1 hour. At the end of the incubation, a 100 μL aliquot was withdrawn into a cluster tube and the reaction was terminated by the addition of 5 μL of stabilizer solution (containing 8.5 mg/ml N-Maleoyl-β-alanine, 20 mg/mL mannitol and 0.075% acetic acid) and 100 μL of acetonitrile containing d5-aminopterin. The tubes were vortexed and then centrifuged at 4000 rpm for 10 minutes (Eppendorf centrifuge 5810R). 150 μL of the supernatant was transferred to 96-well plates and the acetonitrile evaporated off under nitrogen at 35° C. for 5 minutes. The extract was diluted with 50 μL of mobile phase A. The plate was vortexed on a VX-2500 multi-tube vortexer (VWR International, Radnor, Pa.) and the extract analyzed by LC-MS/MS.

Series [3] can be described thus: Plasma protein binding by ultrafiltration, dog plasma. The settings on record: 500 nM. The format is in vitro ADME. The method, then: as §1
Series [4] is described as follows: Plasma protein binding by ultrafiltration, rat plasma. The settings on record: 500 nM. Type of series: in vitro ADME. The method, then: as §1
The nature of series [5]: Incubation with RAW264.7 cell lysates. Type of series: in vitro ADME, mouse. The settings on record: RAW264.7 lysate, pH 4.5, 37° C., 2 hours. The method, then:
To 100 μL AIA rat macrophage, RAW264.7 or THP-1 FRβ cell lysates (each containing 10 million cells/mL 0.1 M sodium acetate, Ph 4.5) was added 2 μL of a 50 μM solution of EC2319 or EC1669 (Endocyte, Inc.). The solutions were incubated at 37° C. in a heat block (VWR International, Radnor, Pa.) for 2 hours. The reaction was terminated by the addition of 5 µL of stabilizer solution and 100 μL of acetonitrile containing d5-aminopterin (Endocyte, Inc.). The rest of the workup is as described above.

A short description of series [6]: Incubation with AIA rat macrophage cell lysates. The settings on record: AIA rat macrophage lysate, pH 4.5, 37° C., 2 hours. Type of series: in vitro ADME. As for the experimental part: Prior to immunization with adjuvant, female Lewis rats were fed a folate-deficient diet (Harlan Teklad, Indianapolis, Ind.) for approximately 10 days to reduce serum folate competition from high-folate-containing regular rodent chow. The rats were then inoculated intradermally (at the base of tail) with 0.5 mg heat-killed M. butyricum (BD Diagnostic Systems, Franklin Lakes, N.J.) in 100 μL light mineral oil (Sigma-Aldrich, St Louis, Mo., USA). The rats were then allowed to develop arthritis scores between 3 and 4 as described in Lu et al. (Arthritis Research & Therapy 2011, 13:R56). After rats developed severe joint inflammation, AIA rat peritoneal cells were isolated, plated, and whole cell lysates were prepared as described above with the exception that the lysates were resuspended in 0.1 M sodium acetate buffer, pH 4.5, to make a concentration of cell lysates equivalent to 10 million cells/mL of 0.1 M sodium acetate buffer, pH 4.5.
To 100 μL AIA rat macrophage, RAW264.7 or THP-1 FRβ cell lysates (each containing 10 million cells/mL 0.1 M sodium acetate, Ph 4.5) was added 2 μL of a 50 μM solution of EC2319 or EC1669 (Endocyte, Inc.). The solutions were incubated at 37° C. in a heat block (VWR International, Radnor, Pa.) for 2 hours. The reaction was terminated by the addition of 5 µL of stabilizer solution and 100 μL of acetonitrile containing d5-aminopterin (Endocyte, Inc.). […]

A further series can be described thus: Pharmacokinetics in rats. The settings on record: female, Lewis, rat, in vivo, sc, 500 nmol/kg; for AUC(0-inf): AUCinf. As for the experimental part:
Each rat was used for collection of blood samples for a maximum of 4 time points. […] The samples were centrifuged for 3 minutes at 2000×g (Eppendorf 5417R centrifuge) to obtain plasma. The plasma samples were stored at −80° C. until LC-MS/MS analysis.
LC-MS/MS analysis utilized a Waters Acquity UPLC system paired with a Waters Quattro Premier XE tandem quadrupole mass spectrometer operating in ESI positive mode. Prior to injection, K3EDTA plasma samples were processed using a Phenomenex Strata X-A solid phase extraction (SPE) plate. All plasma samples were fortified with N-Maleoyl-β-alanine, mannitol, and acetic acid. Briefly, 50 μL of plasma diluted with 50 μL of internal standard solution and 500 μL 1000:4:1.5 water:ammonium hydroxide:formic acid was mixed and loaded onto a preconditioned Strata X-A SPE plate. Aqueous and organic washes were then applied followed by elution of all analytes with 300:200:7.5 methanol:water:formic acid. The samples were evaporated until approximately 30 μL remained in all wells and 30 μL of 9:1 water:ammonium hydroxide was then added. Finally, the plate was sealed, mixed, and centrifuged prior to transfer to the 2-8° C. Acquity autosampler. Note: During EC1669 analysis, EC0470 was converted to a hydrazone product for bioanalysis. Acetone (500 μL) was added to all samples after the first evaporation step followed by sealing all wells and heating at 50° C. for one hour. After this step, the acetone was evaporated and the extraction completed as described above.
A 10 μL sample volume was applied to the Waters BEH Shield RP18 100×2.1 mm, […] UPLC column operating at a flow rate of 0.4 mL/min while being maintained at 45° C. A gradient between mobile phase A (1000:4:1.5 water:ammonium hydroxide:formic acid) and mobile phase B (acetonitrile) was used to separate the analytes. The gradient was held at 2% B for the first 30 seconds of the chromatographic run followed by increasing to 20% B by 2.5 minutes. A rapid gradient from 60-90% B is then used to clean the column prior to equilibration at 2% B to complete the 4 minute run cycle.
For EC1669 MS/MS analysis, EC1669 and its known major metabolites, EC1886 and […], were optimized and monitored. […] In all cases, internal standard response was used to generate response ratios for each analyte. When calibrated, data was regressed using MassLynx 4.1 software. The table below lists transitions for analytes and internal standards monitored for LC-MS/MS bioanalysis.

What is called Cmax is the peak of the concentration-time curve. Broadly, the Tmax is the time at which the peak concentration occurs. A word on the half-life: it is how long it takes for the measured level to halve. By AUC(0-inf) is commonly meant the area under the concentration-time curve extrapolated to infinity. A higher AUC(0-inf) goes with more exposure. What is called AUC(0-t) is the area under the concentration-time curve up to a stated or last time point. A lower AUC(0-t) goes with low exposure.

For the molecule `N=c1[nH]c(N)nc2ncc(CNc3ccc(C(=O)N[C@@H](CCC(=O)NNC(=O)OCCSSC[C@@H](NC(=O)[C@H](CCC(=O)NC[C@H](O)[C@@H](O)[C@H](O)[C@H](O)CO)NC(=O)[C@@H](CCC(=O)O)NC(=O)[C@H](CCC(=O)NC[C@H](O)[C@@H](O)[C@H](O)[C@H](O)CO)NC(=O)[C@@H](CCC(=O)O)NC(=O)[C@H](CCC(=O)NC[C@H](O)[C@@H](O)[C@H](O)[C@H](O)CO)NC(=O)CC[C@H](NC(=O)c4ccc(NCc5cnc6nc(N)[nH]c(=O)c6n5)cc4)C(=O)O)C(=O)O)C(=O)O)cc3)nc12` [EC1669, reference compound], the plasma protein binding result in series [1], in series [3] and in series [4] was “high plasma protein binding” throughout. Also, the “pH dependence of aminopterin release from the conjugate” value in series [2] is reported as “highest at pH 4.5”. The aminopterin release result in series [5] and in series [6] was “greater from EC1669 than from EC2319” each time. In the series “Pharmacokinetics in rats”, this molecule gave a Cmax of 472 nM. Further, the Tmax in “Pharmacokinetics in rats” turned out to be 30 min. In “Pharmacokinetics in rats”, this molecule showed a half-life of 27.8 min. Also, the total exposure AUC(0-inf) in the series “Pharmacokinetics in rats” (rat plasma, EC1669 dosed SC 500 nmol/kg) is 0.86 µM·h. The same molecule displayed an AUC(0-t) in the series “Pharmacokinetics in rats” (AUClast, rat plasma, EC1669 dosed SC 500 nmol/kg) of 0.857 µM·h.

`COC(=O)[C@H](CSSC(C)(C)[C@H](NC(=O)[C@H](CCC(=O)NC[C@H](O)[C@@H](O)[C@H](O)[C@H](O)CO)NC(=O)[C@H](CCC(=O)O)NC(=O)[C@H](CCC(=O)NC[C@H](O)[C@@H](O)[C@H](O)[C@H](O)CO)NC(=O)[C@H](CCC(=O)O)NC(=O)[C@H](CCC(=O)NC[C@H](O)[C@@H](O)[C@H](O)[C@H](O)CO)NC(=O)CC[C@H](NC(=O)c1ccc(NCc2cnc3nc(N)[nH]c(=O)c3n2)cc1)C(=O)O)C(=O)O)NC(=O)CC[C@H](NC(=O)c1ccc(NCc2cnc3nc(N)nc(N)c3n2)cc1)C(=O)O` [EC2319]: the plasma protein binding result in series [1], in series [3] and in series [4] was “higher plasma protein binding than did EC1669” throughout. The “magnitude of aminopterin release” value in series [2] (37° C.) was “lower than that from EC1669”. In series [2], the “pH dependence of aminopterin release from the conjugate” value was “highest at pH 4.5”. Also, the aminopterin release result in series [5] and in series [6] was “aminopterin release was observed” each time. In addition, the area under the curve AUC(0-inf) in the series “Pharmacokinetics in rats” (rat plasma, EC2319 dosed SC 500 nmol/kg) turned out to be 1.02 µM·h.
